Results from patent US8926966B1 (Regents of the University of California, priority 1990, dated 2015).

How the values were obtained:
NOD mice [1] = test: Insulitis score after tolerization of NOD mice; type: in vivo, mouse; details: examined at 12 weeks
NOD mice [2] = tested on: NOD mice
Method: 1. […] At 12 weeks of age, mice were examined for insulitis and autoantigen reactive T-cells. […] Pancreatic tissue sections were stained by immunoperoxidase techniques for insulin and were counterstained with hematoxylin. Insulitis was scored in a blinded manner by examining 54 to 87 islets on 5 interrupted tissue sections from each pancreas. Proliferative splenic T-cell responses induced by various antigens were performed as described above in Example 4. Data in Table 8 are expressed as the average [^3H]-thymidine label (cpm) incorporated in triplicate cultures.

[3] = tested on: spleen cells of NOD, BALB/c and (NOD/BALB/c) F1 mice; details: <4 or >16 week old NOD or control BALB/c or (NOD/BALB/c) F1 spleen cells
Method: Incorporation of label was measured by liquid scintillation counting.

NOD mice [4] = test: GAD immunization of 8 week old NOD mice, IDDM onset; type: in vivo, mouse
Text: Breeder mice were purchased from Taconic Farms and housed under specific pathogen-free conditions. Only female NOD mice were used in this study. […] Insulitis is generally observed beginning at 4 weeks of age. […] The incidence of IDDM in female mice is 70-90% by one year of age.
Urine glucose levels were monitored twice weekly. After observing above normal glucose in urea, blood glucose levels were monitored twice weekly.

[5] = tested on: autoantibodies to GAD in patient sera; test: Immunoprecipitation of ^35S-GAD65 / ^35S-GAD67 by sera drawn prior to IDDM onset; type: binding, human; design: key to band intensity of immunoprecipitated ^35S-GAD: 1 = lowest; 2 = medium; 3 = highest band intensities
Method: (§1) Islet cells were extracted as previously described by Atkinson, et al. (Lancet, 335:1357-1360, 1990) with the following modifications. […] The protein A Sepharose CL-4B was then boiled in Laemmli sample buffer (Laemmli, Nature, 227:680-685, 1970), and the samples were subjected to SDS-PAGE and fluororadiography (Kodak, X-omat AR5) using Enhance (New England Nuclear). Alternatively, the autoradiographs were analyzed by a BETAGEN (Boston, Mass.) analyzer. Both 64KA positive and negative sera were used in each assay, to serve as interassay controls. All fluororadiographs were analyzed and rated as positive or negative after comparison with the known interassay controls. […] A similar rating procedure was employed for the intensity of bands corresponding to immunoprecipitated ^35S-GAD65 and ^35S-GAD67.
Rat GAD65 and GAD67 cDNAs were subcloned into a bacterial expression system as previously described. Labeling of ^35S-GADs was completed by pulsing IPTG induced bacterium (growing in Minimal Media) for 15 minutes with TRAN ^35S-label (ICN). Cultures were then spun down and resuspended and sonicated in 1 ml of homogenizing buffer (1 mM phenylmethylsulfonyl fluoride (PMSF), 1 mM 2-aminoethylisothiouronium Bromide (AET) and 60 mM potassium phosphate, pH 7.1). After sonication, cell debris was removed by centrifugation and protein concentration was measured (Bradford, Anal. Biochem., 72:248, […]) in the supernatant (supernatant was stored in aliquots at −70° C.).

[6] = tested on: autoantibodies to the 64 kD autoantigen; test: Prior absorption of IDDM serum, recognition of 64 kD pancreatic polypeptide; type: binding; details: human pancreatic islet cell lysate
Method: as §1
Prior absorption of these sera with GAD-6 monoclonal, which recognized GAD65 but not GAD67, or with bacterially produced GAD65, abolished the ability of the sera to recognize the 64 kD pancreatic polypeptide. […] In order to investigate the predictive value of GAD65, sera drawn from patients prior to onset of clinical manifestation of IDDM were tested for autoantibodies to GAD65.

Molecule: glutamic acid decarboxylase [GAD]
- insulitis score of the completely tolerized mice (NOD mice [1]; NOD mice, 50 μg i.v. at 3 weeks): 0.0
- Insultis Score (NOD mice [1]; Table 8A: female NOD mice, i.v. at 3 weeks of age, 50 μg (hsp-p 0.1 μg) in PBS, scale 0-4, mean ± SE): 0.1 ± 0.1
- glucose levels of treated mice (NOD mice [2]; all treated mice, n=17, presently 37 weeks old): normal glucose levels
- insulitis at 30 weeks of age (NOD mice [2]; five treated mice sacrificed at 30 weeks, one had very limited peri-insulitis): four mice were completely free of insulitis
- T cell proliferation [3]: did not induce T cell proliferation
- significance of delay of diabetes versus β-gal immunized mice (NOD mice [4]; 25 ug i.p. in IFA at 8 weeks, again every 6 weeks): < 0.02
- onset of IDDM compared to control β-gal immunized mice (NOD mice [4]; FIG. 11): clear delay in the onset of IDDM
- immunized mice with no signs of hyperglycemia until 36 weeks in age (NOD mice [4]; of 10 mice, 25 ug i.p. in IFA at 8 weeks, again every 6 weeks): 8

B1: GAD65: rat GAD65 expressed in bacteria, ^35S-labeled, in bacterial lysate (protein, UniProt Q05683 1-585, looked up)
Glutamate decarboxylase 2: MASPGSGFWSFGSEDGSGDPENPGTARAWCQVAQKFTGGIGNKLCALLYGDSEKPAESGGSVTSRAATRKVACTCDQKPCSCPKGDVNYALLHATDLLPACEGERPTLAFLQDVMNILLQYVVKSFDRSTKVIDFHYPNELLQEYNWELADQPQNLEEILTHCQTTLKYAIKTGHPRYFNQLSTGLDMVGLAADWLTSTANTNMFTYEIAPVFVLLEYVTLKKMREIIGWPGGSGDGIFSPGGAISNMYAMLIARYKMFPEVKEKGMAAVPRLIAFTSEHSHFSLKKGAAALGIGTDSVILIKCDERGKMIPSDLERRILEVKQKGFVPFLVSATAGTTVYGAFDPLLAVADICKKYKIWMHVDAAWGGGLLMSRKHKWKLNGVERANSVTWNPHKMMGVPLQCSALLVREEGLMQSCNQMHASYLFQQDKHYDLSYDTGDKALQCGRHVDVFKLWLMWRAKGTTGFEAHIDKCLELAEYLYNIIKNREGYEMVFDGKPQHTNVCFWFVPPSLRVLEDNEERMSRLSKVAPVIKARMMEYGTTMVSYQPLGDKVNFFRMVISNPAATHQDIDFLIEEIERLGQDL
modifications: 35S-labeled
notes: rat GAD65 expressed in bacteria, ^35S-labeled, in bacterial lysate
- specimens immunoreactive ([5]; 9 out of 12 sera drawn prior to IDDM onset): 75%
- band intensity of immunoprecipitated ^35S-GAD ([5]; serum of patient eight, drawn 8 months before IDDM onset): 0
- band intensity of immunoprecipitated ^35S-GAD ([5]; serum of patient eleven, drawn 10 months before IDDM onset): 1
- band intensity of immunoprecipitated ^35S-GAD ([5]; serum of patient five, drawn 34 months before IDDM onset): 1
- band intensity of immunoprecipitated ^35S-GAD ([5]; serum of patient nine, drawn 42 months before IDDM onset): 1
- band intensity of immunoprecipitated ^35S-GAD ([5]; serum of patient one, drawn 9 months before IDDM onset): 1
- band intensity of immunoprecipitated ^35S-GAD ([5]; serum of patient seven, drawn 3 months before IDDM onset): 0
- band intensity of immunoprecipitated ^35S-GAD ([5]; serum of patient six, drawn 11 months before IDDM onset): 0
- band intensity of immunoprecipitated ^35S-GAD ([5]; serum of patient ten, drawn 25 months before IDDM onset): 1
- band intensity of immunoprecipitated ^35S-GAD ([5]; serum of patient three, drawn 14 months before IDDM onset): 2
- band intensity of immunoprecipitated ^35S-GAD ([5]; serum of patient twelve, drawn 4 months before IDDM onset): 1
- band intensity of immunoprecipitated ^35S-GAD ([5]; serum of patient two, drawn 6 months before IDDM onset): 3
- band intensity of immunoprecipitated ^35S-GAD ([5]; serum of patient, drawn 66 months before IDDM onset): 1
- ability of patient four sera to recognize the 64 kD pancreatic polypeptide after prior absorption [6]: abolished
